Measured values taken from patent publication US20070014785A1.

Target: human CD20 (entire coding sequence, expressed on the cell surface after LTR-CD20-LTR retroviral transduction) (human) (UniProt P11836)
Experiment: cell-based or functional assay

UniProt P11836, sequence (P11836 whole entry): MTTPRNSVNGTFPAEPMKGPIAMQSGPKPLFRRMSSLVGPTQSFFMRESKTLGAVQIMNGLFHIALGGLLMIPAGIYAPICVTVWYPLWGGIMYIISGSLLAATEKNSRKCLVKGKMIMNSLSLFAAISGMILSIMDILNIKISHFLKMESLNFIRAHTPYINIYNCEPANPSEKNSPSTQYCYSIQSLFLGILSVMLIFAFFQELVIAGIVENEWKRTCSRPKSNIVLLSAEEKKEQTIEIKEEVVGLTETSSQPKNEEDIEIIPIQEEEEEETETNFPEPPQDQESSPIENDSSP

% specific lysis, Rituximab alone (Donor 1, 30% CD3/CD20+ lymphocytes): 0% | % specific lysis, Rituximab alone (Donor 2, 23% CD3/CD20+ lymphocytes): 0% | % specific lysis, Rituximab alone (Donor 3, 15% CD3/CD20+ lymphocytes): 0% | % specific lysis, Rituximab plus complement (Donor 1, 30% CD3/CD20+ lymphocytes): 33% | % specific lysis, Rituximab plus complement (Donor 2, 23% CD3/CD20+ lymphocytes): 35% | % specific lysis, Rituximab plus complement (Donor 3, 15% CD3/CD20+ lymphocytes): 18%
Substance: Rituximab (Roche), humanised monoclonal antibody against CD20
death of the CD3/CD20+ cells after one hour exposure (complement-dependent cytotoxicity): 90%
